Assay results reported in patent US20110151530.

Tested on: IcmBmp, icmB gene product of Methylibium petroleiphilum (subunit of hydroxyisobutyryl-CoA mutase)

B1: IcmAmp, icmA gene product of Methylibium petroleiphilum (subunit of hydroxyisobutyryl-CoA mutase) (enzyme)
chain: MTWLEPQIKSQLQSERKDWEANEVGAFLKKAPERKEQFHTIGDFPVQRTYTAADIADTPLEDIGLPGRYPFTRGPYPTMYRSRTWTMRQIAGFGTGEDTNKRFKYLIAQGQTGISTDFDMPTLMGYDSDHPMSDGEVGREGVAIDTLADMEALLADIDLEKISVSFTINPSAWILLAMYVALGEKRGYDLNKLSGTVQADILKEYMAQKEYIYPIAPSVRIVRDIITYSAKNLKRYNPINISGYHISEAGSSPLQEAAFTLANLITYVNEVTETGMHVDEFAPRLAFFFVSQGDFFEEVAKFRALRRCYAKIMKERFGAKNPESMRLRFHCQTAAATLTKPQYMVNVVRTSLQALSAVLGGAQSLHTNGYDEAFAIPTEDAMKMALRTQQIIAEESGVADVIDPLGGSYYVEALTTEYEKKIFEILEEVEKRGGTIKLIEQGWFQKQIADFAYETALRKQSGQKPVIGVNRFVENEEDVKIEIHPYDNTTAERQISRTRRVRAERDEAKVQAMLDQLVAVAKDESQNLMPLTIELVKAGATMGDIVEKLKGIWGTYRETPVF
Activity of purified enzyme (mUI/mg): Hydroxyisobutyryl-CoA mutase (with 3-Hydroxybutyryl-CoA 1 mM in aerobic conditions): 2 mUI/mg
Activity of purified enzyme (mUI/mg): Hydroxyisobutyryl-CoA mutase (with 3-Hydroxybutyryl-CoA 1 mM in anaerobic conditions): 46 mUI/mg
Activity of purified enzyme (mUI/mg): Hydroxyisobutyryl-CoA mutase (with 3-Hydroxybutyryl-CoA 10 mM in anaerobic conditions): 223 mUI/mg
